Assay results: US20130071400A1, “LINGO binding molecules and Pharmaceutical Use Thereof” (NOVARTIS AG, priority 2006, published 2013)

Tested on: postnatal day 7 rat cerebellar granule neurons (CGN)
Test: Neurite outgrowth inhibition assay on spinal cord myelin
Type: cell-based
Conditions: sub-nM concentrations in vitro
Description: A) P7 CGN cells are incubated for 16 hr on wells coated without spinal cord myelin (no SC, white bars) or wells coated with spinal cord myelin in the absence (SC, red bars) or presence of anti-LINGO-1 IgG4 antibodies, a control anti-lysozyme IgG4 antibody 3207 (green bars) or […] of the ROCK inhibitor Y27632 (yellow bar). […] The experiment is performed in three 96 well plates with an SC and no SC condition per plate to which the effects of the antibodies on that plate are compared and mean neurite length per neuron (μm) is calculated for 500 neurons per well in replicates of 10. The percentage inhibition (white text) is calculated as the percentile difference in mean neurite length/neuron between cells plated on wells coated with and without SC. The percentage disinhibition (black italic text) is calculated as the difference in mean neurite length between cells plated on SC in the presence and absence of anti-LINGO-1 antibody as a percentile of the difference between cells plated on wells coated with and without SC. *p<0.05, **p<0.01 (one way ANOVA, Holm-Sidak comparison to mean neurite length/neuron for cells plated on spinal cord myelin in the absence of antibody).
A) P7 CGN cells are incubated for 8 hr on wells coated without spinal cord myelin (no SC, white bars) or wells coated with spinal cord myelin in the absence (SC, red bars) or presence of anti-LINGO-1 IgG4 antibodies or a control anti-lysozyme IgG4 antibody 3207. The experiment is performed in three 96 well plates with an SC and no SC condition per plate to which the effects of the antibodies on that plate are compared and mean neurite length per neuron (μm) is calculated for 500 neurons per well in replicates of 10. The percentage inhibition (white text) and disinhibition (black italic text) is calculated as above. **p<0.01 (one way ANOVA, Holm-Sidak comparison to mean neurite length/neuron for cells plated on spinal cord myelin in the absence of antibody).
P7 CGN cells are incubated for 8 hr on wells coated without spinal cord myelin (no SC) or wells coated with spinal cord myelin in the absence (SC) or presence of the indicated concentrations of anti-LINGO-1 IgG4 antibodies 4784 or 4785, a control anti-lysozyme IgG4 antibody 3207 or 1 μM Y27632 (ROCK). The experiment is performed in three 96 well plates with an SC and no SC condition per plate to which the effects of the antibodies on that plate are compared and mean neurite length per neuron (μm) is calculated for 500 neurons per well in replicates of 10. The percentage inhibition (white text) and disinhibition (black italic text) is calculated as above. *p<0.05, **p<0.01 (one way ANOVA, Holm-Sidak comparison to mean neurite length/neuron for cells plated on spinal cord myelin in the absence of antibody). […]

| Molecule | attenuation of the neurite outgrowth inhibitory activity of adult rat spinal cord myelin |
| --- | --- |
| IgG4 4784: monoclonal human anti-LINGO-1 IgG4 antibody; VL SEQ ID NO: 4, VH SEQ ID NO: 5 (antibody, V domains shown, IgG4; 4784 VH; 4784 VL) VH: QVQLKESGPALVKPTQTLTLTCTFSGFSLSSSGVGVGWIRQPPGKALEWLAHIGSDDDKYYSTSLKTRLTISKDTSKNQVVLTMTNMDPVDTATYYCARNQQYGDGYPGYFDYWGQGTLVTVSS VL: DIELTQPPSVSVAPGQTARISCSGDNIGNYYVYWYQQKPGQAPVLVIYEDTNRPSGIPERFSGSNSGNTATLTISGTQAEDEADYYCQSYDNLHEQVFGGGTKLTVLG | significantly attenuate |
| IgG4 4785: monoclonal human anti-LINGO-1 IgG4 antibody; VL SEQ ID NO: 6, VH SEQ ID NO: 7 (antibody, V domains shown, IgG4; 4785 VH; 4785 VL) VH: QVQLQQSGPGLVKPSQTLSLTCAISGDSVSDNSAAWSWIRQSPGRGLEWLGLIYLRSKWDNDYAVSVKSRITINPDTSKNQFSLQLNSVTPEDTAVYYCARTGRADEFDVWGQGTLVTVSS VL: DIVLTQPPSVSGAPGQRVTISCSGSSSNIGNNYVSWYQQLPGTAPKLLISRNSKRPSGVPDRFSGSKSGTSASLAITGLQSEDEADYYCSTYDTFSIVFGGGTKLTVLG | significantly attenuate |
